Reference: doi:10.1101/641415

Experiments:
[1] = molecular target: SiiA-R162A (S. Typhimurium); test: SEC
[2] = molecular target: SeMet-labelled SiiA-PD (S. Typhimurium); test: crystal structure
[3] = molecular target: periplasmic region of SiiA (ppr-SiiA, aa 40-210) (S. Typhimurium); test: SEC
[4] = molecular target: SiiA periplasmic domain (SiiA-PD) (S. Typhimurium); test: SEC

## SiiA-R162A (domain or fragment)
[1]
  stoichiometry N: 2

## SeMet-labelled SiiA-PD (domain or fragment)
[2]
  stoichiometry N: 2

## periplasmic region of SiiA (ppr-SiiA, aa 40-210) (domain or fragment)
[3]
  stoichiometry N: 2

## SiiA periplasmic domain (SiiA-PD) (domain or fragment)
[4]
  stoichiometry N: 2
